Reference: patent publication US20170360931A1 (UNIVERSITY OF CHICAGO, published 2017)

Columns and labels:
Assay in all cases: cell-based or functional assay
[1] = target: HA of A/chicken/Jalisco/12283/12 (H7N3) virus (influenza A virus …)
[2] = target: HA of wild type A/Shanghai/1/2013 (H7N9) virus (influenza A virus A/Shanghai/1/2013 …)
[3] = target: HA of A/California/04/2009 (H1N1) virus (influenza A virus A/California/04/2009 …)

B1: 045-051310-2B06 (antibody, V domains shown)
VH: QVQLVQSGPEMKKPGASVKVSCKTSGYRFTRYGISWVRQAPGRGLEWLGWISAYSGDTYYGQKFQDRVTMTTDRATSTAYMELRNLGSDDSAVYFCARDHVQGEVSIYYYAMDVWGEGTTVTVSS
VL: EIVLTQSPATLSLSPGERVTLSCRASESVGNKLAWFQQRPGQAPRLLIYNASNRATDIPARFSGSGSGTDFTLTISSLQPEDFAVYYCQQRGTWPRGLITFGQGTRLEIK
PRNT50 (plaque reduction assay) [1]: 18 µg/mL | PRNT50 (plaque reduction assay) [2]: 19 µg/mL | PRNT50 (plaque reduction assay) [3]: 5.5 µg/mL
